US20060286636A1 (published 2006)

Columns and labels:
[1] = biological target: T1, rat Neuropilin-1/Fc chimeric receptor (rat, UniProt Q9QWJ9 22-854); experiment: competition plate binding assay, HBD against 125I-VEGF165 on immobilized rat neuropilin-1/Fc
[2] = biological target: T2, mouse VEGFR-2/Fc chimeric receptor (mouse, UniProt P35918 20-762); experiment: competition plate binding assay: cold competitor against 125I-VEGF165 on immobilized VEGFR-2 (KDR)/Fc, scintillation counting
T2 construct: Bought from R&D Systems; also called KDR; KDR receptor
T2 sequence (P35918 20-762, stated change not applied): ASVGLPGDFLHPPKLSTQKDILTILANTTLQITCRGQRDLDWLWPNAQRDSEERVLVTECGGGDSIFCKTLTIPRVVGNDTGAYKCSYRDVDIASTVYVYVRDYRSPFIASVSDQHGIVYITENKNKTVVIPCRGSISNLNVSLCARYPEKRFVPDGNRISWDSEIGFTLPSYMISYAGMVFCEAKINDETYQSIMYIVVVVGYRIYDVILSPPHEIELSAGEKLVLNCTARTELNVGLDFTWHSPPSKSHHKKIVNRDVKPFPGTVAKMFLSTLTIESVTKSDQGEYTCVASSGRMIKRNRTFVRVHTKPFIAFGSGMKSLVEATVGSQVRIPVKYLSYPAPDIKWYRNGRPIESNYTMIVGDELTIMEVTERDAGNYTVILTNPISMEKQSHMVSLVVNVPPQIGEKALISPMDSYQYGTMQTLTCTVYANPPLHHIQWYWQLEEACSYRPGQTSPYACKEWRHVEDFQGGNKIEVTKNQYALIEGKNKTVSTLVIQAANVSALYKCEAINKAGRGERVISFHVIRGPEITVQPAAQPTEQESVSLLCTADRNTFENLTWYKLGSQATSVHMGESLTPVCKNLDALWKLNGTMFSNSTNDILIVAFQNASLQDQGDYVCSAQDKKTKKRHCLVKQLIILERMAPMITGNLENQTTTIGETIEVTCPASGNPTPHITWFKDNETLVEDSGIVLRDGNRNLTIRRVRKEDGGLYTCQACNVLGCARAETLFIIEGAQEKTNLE

[3] = biological target: T3, mouse VEGFR-1/Fc chimeric receptor (mouse, UniProt P35969 23-759); experiment: competition plate binding assay: cold competitor against 125I-VEGF165 on immobilized VEGFR-1 (Flt-1)/Fc, scintillation counting
T3 construct: Bought from R&D Systems; also called Flt-1; Flt-1 receptor
T3 sequence (P35969 23-759, stated change not applied): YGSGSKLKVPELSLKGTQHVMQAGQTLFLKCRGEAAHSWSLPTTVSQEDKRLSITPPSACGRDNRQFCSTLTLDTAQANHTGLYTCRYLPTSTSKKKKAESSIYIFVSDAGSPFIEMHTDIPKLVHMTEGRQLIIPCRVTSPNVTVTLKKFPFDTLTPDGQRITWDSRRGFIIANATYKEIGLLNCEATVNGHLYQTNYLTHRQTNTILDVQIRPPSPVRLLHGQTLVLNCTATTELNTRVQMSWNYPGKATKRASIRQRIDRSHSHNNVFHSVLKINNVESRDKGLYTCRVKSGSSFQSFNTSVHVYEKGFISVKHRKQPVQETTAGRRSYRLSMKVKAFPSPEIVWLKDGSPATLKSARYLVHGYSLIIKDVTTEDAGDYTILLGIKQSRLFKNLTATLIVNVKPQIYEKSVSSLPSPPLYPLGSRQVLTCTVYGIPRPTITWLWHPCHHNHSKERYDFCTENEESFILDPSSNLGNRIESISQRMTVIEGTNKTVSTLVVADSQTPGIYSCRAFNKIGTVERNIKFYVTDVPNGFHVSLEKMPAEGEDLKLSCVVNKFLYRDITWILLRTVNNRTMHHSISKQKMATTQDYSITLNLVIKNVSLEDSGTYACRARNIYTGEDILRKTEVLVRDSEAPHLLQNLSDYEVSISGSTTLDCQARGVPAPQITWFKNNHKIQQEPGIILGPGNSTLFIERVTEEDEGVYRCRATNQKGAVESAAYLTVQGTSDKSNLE

[4] = biological target: T1, rat Neuropilin-1/Fc chimeric receptor; experiment: competition plate binding assay: cold competitor against 125I-VEGF165 on immobilized Np-1/Fc, scintillation counting
[5] = biological target: T1, rat Neuropilin-1/Fc chimeric receptor; experiment: competition plate binding assay, VEGF164 against 125I-VEGF165 on immobilized rat neuropilin-1/Fc, compared with HBD
[6] = biological target: T3, mouse VEGFR-1/Fc chimeric receptor; experiment: competitive binding of cold competitor against 125I-VEGF165 on immobilized mouse VEGFR-1/Fc, one-site competition fit [panel VEGFR-1]
[7] = biological target: T2, mouse VEGFR-2/Fc chimeric receptor; experiment: competitive binding of cold competitor against 125I-VEGF165 on immobilized mouse VEGFR-2/Fc, one-site competition fit [panel VEGFR-2]
[8] = biological target: T1, rat Neuropilin-1/Fc chimeric receptor; experiment: competition plate binding assay, cold competitor against 125I-VEGF165 on immobilized rat neuropilin-1/Fc, without heparin

T1 sequence (Q9QWJ9 22-854, stated change not applied): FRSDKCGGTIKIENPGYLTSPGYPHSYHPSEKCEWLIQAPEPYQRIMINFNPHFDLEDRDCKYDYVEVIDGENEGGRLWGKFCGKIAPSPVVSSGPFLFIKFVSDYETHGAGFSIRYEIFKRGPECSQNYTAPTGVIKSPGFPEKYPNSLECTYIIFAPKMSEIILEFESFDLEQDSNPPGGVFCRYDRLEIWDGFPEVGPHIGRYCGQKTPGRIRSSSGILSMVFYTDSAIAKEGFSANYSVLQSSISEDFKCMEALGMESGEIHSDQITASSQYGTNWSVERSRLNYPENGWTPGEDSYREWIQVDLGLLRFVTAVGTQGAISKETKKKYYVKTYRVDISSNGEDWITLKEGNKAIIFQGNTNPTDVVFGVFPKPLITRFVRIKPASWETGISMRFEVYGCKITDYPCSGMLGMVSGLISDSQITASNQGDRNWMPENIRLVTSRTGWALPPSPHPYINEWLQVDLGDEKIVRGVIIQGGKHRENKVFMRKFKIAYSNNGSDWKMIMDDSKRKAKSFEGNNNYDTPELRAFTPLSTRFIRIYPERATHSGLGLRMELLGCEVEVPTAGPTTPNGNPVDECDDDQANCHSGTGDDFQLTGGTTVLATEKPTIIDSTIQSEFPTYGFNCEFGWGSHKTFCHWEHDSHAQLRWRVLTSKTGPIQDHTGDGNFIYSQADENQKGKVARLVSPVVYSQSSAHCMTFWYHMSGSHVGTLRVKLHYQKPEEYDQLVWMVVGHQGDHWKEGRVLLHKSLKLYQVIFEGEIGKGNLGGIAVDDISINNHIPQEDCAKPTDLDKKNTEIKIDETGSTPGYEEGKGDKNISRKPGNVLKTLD

| Binder | IC50 (read off the curve) [2] [nM] | IC50 (read off the curve) [3] [nM] | IC50 (read off the curve) [4] [nM] | also measured |
| --- | --- | --- | --- | --- |
| recombinant heparin-binding domain of VEGF164 (HBD) (also called soluble HBD; VEGF55) ARQENPCGPCSERRKHLFVQDPQTCKCSCKNTDSRCKARQLELNERTCRCDKPRR |  |  |  | IC50 [1]: 28.6 nM |
| VEGF120 (ligand) APTTEGEQKSHEVIKFMDVYQRSYCRPIETLVDIFQEYPDEIEYIFKPSCVPLMRCAGCCNDEALECVPTSESNITMQIMRIKPHQSQHIGEMSFLQHSRCECRPKKDRTKPEKCDKPRR | ~0.08 | ~0.09 |  |  |
| VEGF164 double mutant R14A/R49A (ligand, ID No. 23; also called R14/R49A; mutant R14/R49A) APMAEGGGQNHHEVVKFMDVYQRSYCHPIETLVDIFQEYPDEIEYIFKPSCVPLMRCGGCCNDEGLECVPTEESNITMQIMRIKPHQGQHIGEMSFLQHNKCECRPKKDRARQENPCGPCSERAKHLFVQDPQTCKCSCKNTDSRCKARQLELNERTCACDKPRR |  |  | ~5 |  |
| VEGF164 (wild type) (ligand) APTTEGEQKSHEVIKFMDVYQRSYCRPIETLVDIFQEYPDEIEYIFKPSCVPLMRCAGCCNDEALECVPTSESNITMQIMRIKPHQSQHIGEMSFLQHSRCECRPKKDRTKPENHCEPCSERRKHLFVQDPQTCKCSCKNTDSRCKARQLELNERTCRCDKPRR | ~0.08 | ~0.02 |  | fold stronger competitive binding than HBD [5]: ~230 fold; IC50 (read off the curve) [6]: ~0.04 nM; IC50 (read off the curve) [7]: ~0.2 nM; IC50 [8]: 0.128 nM |
| VEGF164 mutant K26A (ligand, mouse, UniProt Q00731-2 27-190, looked up, mature) APTTEGEQKSHEVIKFMDVYQRSYCRPIETLVDIFQEYPDEIEYIFKPSCVPLMRCAGCCNDEALECVPTSESNITMQIMRIKPHQSQHIGEMSFLQHSRCECRPKKDRTKPENHCEPCSERRKHLFVQDPQTCACSCKNTDSRCKARQLELNERTCRCDKPRR |  |  | ~0.4 | fold reduction of binding affinity compared to VEGF164 [8]: 2.5 fold |
